For the assay, the target named is Recombinant Human TNF-α/TNFSF1A (human, UniProt P01375 77-233). The assay can be described thus: cell-based or functional assay.
Chain of Recombinant Human TNF-α/TNFSF1A (P01375 77-233 limits assumed): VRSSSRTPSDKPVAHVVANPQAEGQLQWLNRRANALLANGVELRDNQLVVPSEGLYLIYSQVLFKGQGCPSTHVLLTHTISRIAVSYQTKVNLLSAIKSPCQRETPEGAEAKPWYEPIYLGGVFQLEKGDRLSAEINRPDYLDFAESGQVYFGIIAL

B1: DVD3209 (bispecific antibody, IgG1)
VH: EVQLVESGGGLVQPGGSLRLSCAASGFSFSKYWLGWVRQAPGKGLEWVSDIYPGYDYTHYNEKFKDRFTISADTSKNTAYLQMNSLRAEDTAVYYCARSDGSSTYWGQGTLVTVSSASTKGPEVQLVESGGGLVQPGGSLRLSCAASGFTFSNYGVTWVRQAPGKGLEWVSMIWADGSTHYASSVKGRFTISRDNSKNTLYLQMNSLRAEDTAVYYCAREWQHGPVAYWGQGTLVTVSS
VL: DIQMTQSPSSLSASVGDRVTITCTSSQNIVHSNGNTYLEWYQQKPGKAPKLLIYKVSNRFSGVPSRFSGSGSGTDFTLTISSLQPEDFATYYCFQVSHVPYTFGQGTKVEIKRTVAAPDIQMTQSPSSLSASVGDRVTITCRASQLVSSAVAWYQQKPGKAPKLLIYWASARHTGVPSRFSGSGSGTDFTLTISSLQPEDFATYYCQQHYKTPFTFGQGTKLEIKR
On to B1, for which the “C-Terminal VD huTNFα Neutralization Assay IC50” value amounted to 0.536 nM.

B2: DVD3211 (bispecific antibody, IgG1)
VH: EVQLVESGGGLVQPGGSLRLSCAASGFSFSKYWLGWVRQAPGKGLEWVSDIYPGYDYTHYNEKFKDRFTISADTSKNTAYLQMNSLRAEDTAVYYCARSDGSSTYWGQGTLVTVSSASTKGPEVQLVESGGGLVQPGGSLRLSCAASGFTFSNYGVTWVRQAPGKGLEWVSMIWADGSTHYASSVKGRFTISRDNSKNTLYLQMNSLRAEDTAVYYCAREWQHGPVAYWGQGTLVTVSS
VL: DIQMTQSPSSLSASVGDRVTITCTSSQNIVHSNGNTYLEWYQQKPGKAPKLLIYKVSNRFSGVPSRFSGSGSGTDFTLTISSLQPEDFATYYCFQVSHVPYTFGQGTKVEIKRTVAAPSVFIFPPDIQMTQSPSSLSASVGDRVTITCRASQLVSSAVAWYQQKPGKAPKLLIYWASARHTGVPSRFSGSGSGTDFTLTISSLQPEDFATYYCQQHYKTPFTFGQGTKLEIKR
As for B2, the “C-Terminal VD huTNFα Neutralization Assay IC50” value worked out at 0.014 nM.

B3: DVD3212 (bispecific antibody, IgG1)
VH: EVQLVESGGGLVQPGGSLRLSCAASGFSFSKYWLGWVRQAPGKGLEWVSDIYPGYDYTHYNEKFKDRFTISADTSKNTAYLQMNSLRAEDTAVYYCARSDGSSTYWGQGTLVTVSSASTKGPSVFPLAPEVQLVESGGGLVQPGGSLRLSCAASGFTFSNYGVTWVRQAPGKGLEWVSMIWADGSTHYASSVKGRFTISRDNSKNTLYLQMNSLRAEDTAVYYCAREWQHGPVAYWGQGTLVTVSS
VL: DIQMTQSPSSLSASVGDRVTITCTSSQNIVHSNGNTYLEWYQQKPGKAPKLLIYKVSNRFSGVPSRFSGSGSGTDFTLTISSLQPEDFATYYCFQVSHVPYTFGQGTKVEIKRTVAAPDIQMTQSPSSLSASVGDRVTITCRASQLVSSAVAWYQQKPGKAPKLLIYWASARHTGVPSRFSGSGSGTDFTLTISSLQPEDFATYYCQQHYKTPFTFGQGTKLEIKR
As to B3, the “C-Terminal VD huTNFα Neutralization Assay IC50” value was 0.039 nM.

B4: DVD3208 (bispecific antibody, IgG1)
VH: EVQLVESGGGLVQPGGSLRLSCAASGFSFSKYWLGWVRQAPGKGLEWVSDIYPGYDYTHYNEKFKDRFTISADTSKNTAYLQMNSLRAEDTAVYYCARSDGSSTYWGQGTLVTVSSGGGGSGGGGSEVQLVESGGGLVQPGGSLRLSCAASGFTFSNYGVTWVRQAPGKGLEWVSMIWADGSTHYASSVKGRFTISRDNSKNTLYLQMNSLRAEDTAVYYCAREWQHGPVAYWGQGTLVTVSS
VL: DIQMTQSPSSLSASVGDRVTITCTSSQNIVHSNGNTYLEWYQQKPGKAPKLLIYKVSNRFSGVPSRFSGSGSGTDFTLTISSLQPEDFATYYCFQVSHVPYTFGQGTKVEIKRGGSGGGGSGDIQMTQSPSSLSASVGDRVTITCRASQLVSSAVAWYQQKPGKAPKLLIYWASARHTGVPSRFSGSGSGTDFTLTISSLQPEDFATYYCQQHYKTPFTFGQGTKLEIKR
In the case of B4, the “C-Terminal VD huTNFα Neutralization Assay IC50” value came to 0.172 nM.

B5: DVD3204 (bispecific antibody, IgG1)
VH: EVQLVESGGGLVQPGGSLRLSCAASGFTFSNYGVTWVRQAPGKGLEWVSMIWADGSTHYASSVKGRFTISRDNSKNTLYLQMNSLRAEDTAVYYCAREWQHGPVAYWGQGTLVTVSSASTKGPEVQLVESGGGLVQPGGSLRLSCAASGFSFSKYWLGWVRQAPGKGLEWVSDIYPGYDYTHYNEKFKDRFTISADTSKNTAYLQMNSLRAEDTAVYYCARSDGSSTYWGQGTLVTVSS
VL: DIQMTQSPSSLSASVGDRVTITCRASQLVSSAVAWYQQKPGKAPKLLIYWASARHTGVPSRFSGSGSGTDFTLTISSLQPEDFATYYCQQHYKTPFTFGQGTKLEIKRTVAAPDIQMTQSPSSLSASVGDRVTITCTSSQNIVHSNGNTYLEWYQQKPGKAPKLLIYKVSNRFSGVPSRFSGSGSGTDFTLTISSLQPEDFATYYCFQVSHVPYTFGQGTKVEIKR
B5: the “N-Terminal VD huTNFα Neutralization Assay IC50” value worked out at 0.001 nM.

B6: DVD3207 (bispecific antibody, IgG1)
VH: EVQLVESGGGLVQPGGSLRLSCAASGFTFSNYGVTWVRQAPGKGLEWVSMIWADGSTHYASSVKGRFTISRDNSKNTLYLQMNSLRAEDTAVYYCAREWQHGPVAYWGQGTLVTVSSASTKGPSVFPLAPEVQLVESGGGLVQPGGSLRLSCAASGFSFSKYWLGWVRQAPGKGLEWVSDIYPGYDYTHYNEKFKDRFTISADTSKNTAYLQMNSLRAEDTAVYYCARSDGSSTYWGQGTLVTVSS
VL: DIQMTQSPSSLSASVGDRVTITCRASQLVSSAVAWYQQKPGKAPKLLIYWASARHTGVPSRFSGSGSGTDFTLTISSLQPEDFATYYCQQHYKTPFTFGQGTKLEIKRTVAAPDIQMTQSPSSLSASVGDRVTITCTSSQNIVHSNGNTYLEWYQQKPGKAPKLLIYKVSNRFSGVPSRFSGSGSGTDFTLTISSLQPEDFATYYCFQVSHVPYTFGQGTKVEIKR
B6: the “N-Terminal VD huTNFα Neutralization Assay IC50” value stood at 0.005 nM.

B7: DVD3206 (bispecific antibody, IgG1)
VH: EVQLVESGGGLVQPGGSLRLSCAASGFTFSNYGVTWVRQAPGKGLEWVSMIWADGSTHYASSVKGRFTISRDNSKNTLYLQMNSLRAEDTAVYYCAREWQHGPVAYWGQGTLVTVSSASTKGPEVQLVESGGGLVQPGGSLRLSCAASGFSFSKYWLGWVRQAPGKGLEWVSDIYPGYDYTHYNEKFKDRFTISADTSKNTAYLQMNSLRAEDTAVYYCARSDGSSTYWGQGTLVTVSS
VL: DIQMTQSPSSLSASVGDRVTITCRASQLVSSAVAWYQQKPGKAPKLLIYWASARHTGVPSRFSGSGSGTDFTLTISSLQPEDFATYYCQQHYKTPFTFGQGTKLEIKRTVAAPSVFIFPPDIQMTQSPSSLSASVGDRVTITCTSSQNIVHSNGNTYLEWYQQKPGKAPKLLIYKVSNRFSGVPSRFSGSGSGTDFTLTISSLQPEDFATYYCFQVSHVPYTFGQGTKVEIKR
For B7, the “N-Terminal VD huTNFα Neutralization Assay IC50” value came out at 0.001 nM.

B8: DVD3217 (bispecific antibody, IgG1)
VH: EVQLVESGGGLVQPGGSLRLSCAASGFTFSNYGVEWVRQAPGKGLEWVSGIWADGSTHYADTVKSRFTISRDNSKNTLYLQMNSLRAEDTAVYYCAREWQHGPVAYWGQGTLVTVSSASTKGPSVFPLAPEVQLVESGGGLVQPGGSLRLSCAASGFSFSKYWLGWVRQAPGKGLEWVSDIYPGYDYTHYNEKFKDRFTISADTSKNTAYLQMNSLRAEDTAVYYCARSDGSSTYWGQGTLVTVSS
VL: DIQMTQSPSSLSASVGDRVTITCKASQLVSSAVAWYQQKPGKAPKLLIYWASTLHTGVPSRFSGSGSGTDFTLTISSLQPEDFATYYCQQHYRTPFTFGQGTKLEIKRTVAAPDIQMTQSPSSLSASVGDRVTITCTSSQNIVHSNGNTYLEWYQQKPGKAPKLLIYKVSNRFSGVPSRFSGSGSGTDFTLTISSLQPEDFATYYCFQVSHVPYTFGQGTKVEIKR
As to B8, the “N-Terminal VD huTNFα Neutralization Assay IC50” value was found to be 0.008 nM.

B9: DVD3216 (bispecific antibody, IgG1)
VH: EVQLVESGGGLVQPGGSLRLSCAASGFTFSNYGVEWVRQAPGKGLEWVSGIWADGSTHYADTVKSRFTISRDNSKNTLYLQMNSLRAEDTAVYYCAREWQHGPVAYWGQGTLVTVSSASTKGPEVQLVESGGGLVQPGGSLRLSCAASGFSFSKYWLGWVRQAPGKGLEWVSDIYPGYDYTHYNEKFKDRFTISADTSKNTAYLQMNSLRAEDTAVYYCARSDGSSTYWGQGTLVTVSS
VL: DIQMTQSPSSLSASVGDRVTITCKASQLVSSAVAWYQQKPGKAPKLLIYWASTLHTGVPSRFSGSGSGTDFTLTISSLQPEDFATYYCQQHYRTPFTFGQGTKLEIKRTVAAPSVFIFPPDIQMTQSPSSLSASVGDRVTITCTSSQNIVHSNGNTYLEWYQQKPGKAPKLLIYKVSNRFSGVPSRFSGSGSGTDFTLTISSLQPEDFATYYCFQVSHVPYTFGQGTKVEIKR
With B9, the “N-Terminal VD huTNFα Neutralization Assay IC50” value came to 0.022 nM.

B10: DVD3214 (bispecific antibody, IgG1)
VH: EVQLVESGGGLVQPGGSLRLSCAASGFTFSNYGVEWVRQAPGKGLEWVSGIWADGSTHYADTVKSRFTISRDNSKNTLYLQMNSLRAEDTAVYYCAREWQHGPVAYWGQGTLVTVSSASTKGPEVQLVESGGGLVQPGGSLRLSCAASGFSFSKYWLGWVRQAPGKGLEWVSDIYPGYDYTHYNEKFKDRFTISADTSKNTAYLQMNSLRAEDTAVYYCARSDGSSTYWGQGTLVTVSS
VL: DIQMTQSPSSLSASVGDRVTITCKASQLVSSAVAWYQQKPGKAPKLLIYWASTLHTGVPSRFSGSGSGTDFTLTISSLQPEDFATYYCQQHYRTPFTFGQGTKLEIKRTVAAPDIQMTQSPSSLSASVGDRVTITCTSSQNIVHSNGNTYLEWYQQKPGKAPKLLIYKVSNRFSGVPSRFSGSGSGTDFTLTISSLQPEDFATYYCFQVSHVPYTFGQGTKVEIKR
Take B10: the “N-Terminal VD huTNFα Neutralization Assay IC50” value came out at 0.02 nM.

B11: DVD3203 (bispecific antibody, IgG1)
VH: EVQLVESGGGLVQPGGSLRLSCAASGFTFSNYGVTWVRQAPGKGLEWVSMIWADGSTHYASSVKGRFTISRDNSKNTLYLQMNSLRAEDTAVYYCAREWQHGPVAYWGQGTLVTVSSGGGGSGGGGSEVQLVESGGGLVQPGGSLRLSCAASGFSFSKYWLGWVRQAPGKGLEWVSDIYPGYDYTHYNEKFKDRFTISADTSKNTAYLQMNSLRAEDTAVYYCARSDGSSTYWGQGTLVTVSS
VL: DIQMTQSPSSLSASVGDRVTITCRASQLVSSAVAWYQQKPGKAPKLLIYWASARHTGVPSRFSGSGSGTDFTLTISSLQPEDFATYYCQQHYKTPFTFGQGTKLEIKRGGSGGGGSGDIQMTQSPSSLSASVGDRVTITCTSSQNIVHSNGNTYLEWYQQKPGKAPKLLIYKVSNRFSGVPSRFSGSGSGTDFTLTISSLQPEDFATYYCFQVSHVPYTFGQGTKVEIKR
For B11, the “N-Terminal VD huTNFα Neutralization Assay IC50” value was found to be 0.071 nM.

B12: DVD3213 (bispecific antibody, IgG1)
VH: EVQLVESGGGLVQPGGSLRLSCAASGFTFSNYGVEWVRQAPGKGLEWVSGIWADGSTHYADTVKSRFTISRDNSKNTLYLQMNSLRAEDTAVYYCAREWQHGPVAYWGQGTLVTVSSGGGGSGGGGSEVQLVESGGGLVQPGGSLRLSCAASGFSFSKYWLGWVRQAPGKGLEWVSDIYPGYDYTHYNEKFKDRFTISADTSKNTAYLQMNSLRAEDTAVYYCARSDGSSTYWGQGTLVTVSS
VL: DIQMTQSPSSLSASVGDRVTITCKASQLVSSAVAWYQQKPGKAPKLLIYWASTLHTGVPSRFSGSGSGTDFTLTISSLQPEDFATYYCQQHYRTPFTFGQGTKLEIKRGGSGGGGSGDIQMTQSPSSLSASVGDRVTITCTSSQNIVHSNGNTYLEWYQQKPGKAPKLLIYKVSNRFSGVPSRFSGSGSGTDFTLTISSLQPEDFATYYCFQVSHVPYTFGQGTKVEIKR
Turning to B12, the “N-Terminal VD huTNFα Neutralization Assay IC50” value was found to be 0.01 nM.
